Where a chain is given by its changes, count along the chain named.
B1: ADC Example 208-6501 (antibody, human IgG1, lambda, V domains shown)
VH: EVQLLESGGGLVQPGGSLRLSCAASGFTFSSYGMHWVRQAPGKGLEWVSAISGSGGSTYYADSVKGRFTISRDNSKNTLYLQMNSLRAEDTAVYYCARGSNYLGMDVWGQGTLVTVSS
VL: QSVLTQPPSASGTPGQRVTISCSGSSSNIGRNIVNWYQQLPGTAPKLLIYRSNQRPSGVPDRFSGSKSGTSASLAISGLRSEDEADYYCQTWGTGWVFGGGTKLTVLG
modifications: drug-linker from Intermediate F104 on Cys, sites not stated
B2: ADC Example 297-6501 (antibody, human IgG1, lambda, V domains shown)
VH: B1 VH
VL: B1 VL
modifications: drug-linker from Intermediate F297 on Cys, sites not stated
B3: ADC Example 284-6501 (antibody, human IgG1, lambda, V domains shown)
VH: B1 VH
VL: B1 VL
modifications: drug-linker from Intermediate F284 on Cys, sites not stated
B4: ADC Example 208-6515 (antibody, human IgG1, lambda, V domains shown)
VH: B1 VH with A40V, S57T, S100G, N101Y, Y102H, L103F, G104L, M105F, V107Y
VL: QSVLTQPPSASGTPGQRVTISCSGSSSNIGSNTVNWYQQLPGTAPKLLIYRNDQRLLGVPDRFSGSKSGTSASLAISGLRSEDEADYYCQSYDSSLSGWVFGGGTKLTVLG
modifications: drug-linker from Intermediate F104 on Cys, sites not stated
B5: ADC Example 281-6501 (antibody, human IgG1, lambda, V domains shown)
VH: B1 VH
VL: B1 VL
modifications: drug-linker from Intermediate F281 on Cys, sites not stated
B6: ADC Example 208-6502 (antibody, human IgG1, lambda, V domains shown)
VH: B1 VH with S31T, A97T, S100Y, N101Y, L103Y
VL: B4 VL with S25G, T33P, R51G, D53S, Q54K, L56P, L57S
modifications: drug-linker from Intermediate F104 on Cys, sites not stated
B7: ADC Example 274-6499 (antibody, human IgG1, lambda, V domains shown)
VH: EVQLLESGGGLVQPGGSLRLSCAASGFTFRDFYMNWIRQAPGKGLEWVSSISASGKYTYYADSVKGRFTISRDNSKNTLYLQMNSLRAEDTAVYYCAREWGYCTNDVCRNWFDPWGQGTLVTVSS
VL: QSVLTQPPSASGTPGQRVTISCSGGYSNVGGNNVNWYQQLPGTAPKLLIYGNSNRPSGVPDRFSGSKSGTSASLAISGLRSEDEADYYCQSYDSSLSGSVFGGGTKLTVLG
modifications: drug-linker from Intermediate F274 on Cys, sites not stated
B8: ADC Example 257-6499 (antibody, human IgG1, lambda, V domains shown)
VH: B7 VH
VL: B7 VL
modifications: drug-linker from Intermediate F257 on Cys, sites not stated
B9: TPP-6515 (antibody, human IgG1, lambda, V domains shown)
VH: B1 VH with A40V, S57T, S100G, N101Y, Y102H, L103F, G104L, M105F, V107Y
VL: B4 VL
B10: TPP-6501 (antibody, human IgG1, lambda, V domains shown)
VH: B1 VH
VL: B1 VL
B11: TPP-6499 (antibody, human IgG1, lambda, V domains shown)
VH: B7 VH
VL: B7 VL
B12: TPP-6502 (antibody, human IgG1, lambda, V domains shown)
VH: B1 VH with S31T, A97T, S100Y, N101Y, L103Y
VL: B7 VL with Y26S, V29I, G31S, N33P, N54K, S99W
B13: ADC Example 173-6515 (antibody, human IgG1, lambda, V domains shown)
VH: B1 VH with A40V, S57T, S100G, N101Y, Y102H, L103F, G104L, M105F, V107Y
VL: B4 VL
modifications: drug-linker from Intermediate F173 on Cys, sites not stated
B14: ADC Example 208-6499 (antibody, human IgG1, lambda, V domains shown)
VH: B7 VH
VL: B7 VL
modifications: drug-linker from Intermediate F104 on Cys, sites not stated
B15: ADC Example 194-6502 (antibody, human IgG1, lambda, V domains shown)
VH: B1 VH with S31T, A97T, S100Y, N101Y, L103Y
VL: B7 VL with Y26S, V29I, G31S, N33P, N54K, S99W
modifications: drug-linker from Intermediate F194 on Lys, sites not stated

The molecules below were run against T1, human B7H3 on cancer cell lines (human, UniProt Q5ZPR3 29-534) (assay: cell-based or functional assay).
T1 sequence (looked up): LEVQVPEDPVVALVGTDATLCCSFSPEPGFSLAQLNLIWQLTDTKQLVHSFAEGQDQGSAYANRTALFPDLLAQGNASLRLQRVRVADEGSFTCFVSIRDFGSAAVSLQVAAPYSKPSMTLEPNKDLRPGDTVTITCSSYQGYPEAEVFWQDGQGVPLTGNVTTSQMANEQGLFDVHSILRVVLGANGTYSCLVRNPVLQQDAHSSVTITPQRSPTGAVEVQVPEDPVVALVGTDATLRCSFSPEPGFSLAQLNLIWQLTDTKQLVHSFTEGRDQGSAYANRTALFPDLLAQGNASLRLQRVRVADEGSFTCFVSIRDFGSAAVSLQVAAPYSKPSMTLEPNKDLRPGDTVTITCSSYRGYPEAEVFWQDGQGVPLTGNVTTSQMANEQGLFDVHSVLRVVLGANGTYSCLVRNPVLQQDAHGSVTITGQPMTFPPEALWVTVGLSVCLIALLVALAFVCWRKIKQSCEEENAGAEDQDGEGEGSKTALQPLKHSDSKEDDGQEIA

Molecule	U251 CTG (IC50 M) [nM]
B1	0.295
B2	0.704
B3	62.9
B4	0.41
B5	29.9
B6	0.933
B7	1.2
B8	0.0736

Target: T1, human B7H3 on cancer cell lines
Experiment: cell-based or functional assay
Remark: another data set of the same source

Molecule	NCI-H292 CTG (IC50 M) [nM]	U251 CTG (IC50 M) [nM]
208-isotype control (antibody)	137	77.6

Each molecule was assayed against T2, human B7H4 (RnDSystems, 6576-B7) (human, UniProt Q7Z7D3 29-258, limits assumed) (assay: ELISA, IgG captured on anti-human IgG Fc, antigen 37 ng/ml, anti-His HRP detection).
T2 construct: Bought protein; His tag implied by anti-His detection
T2 sequence (looked up): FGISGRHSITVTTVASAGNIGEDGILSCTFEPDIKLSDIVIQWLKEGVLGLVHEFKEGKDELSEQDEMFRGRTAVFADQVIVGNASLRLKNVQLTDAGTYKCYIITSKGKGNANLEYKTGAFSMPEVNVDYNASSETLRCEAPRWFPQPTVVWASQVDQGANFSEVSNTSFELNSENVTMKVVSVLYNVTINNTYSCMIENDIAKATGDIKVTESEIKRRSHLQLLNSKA
Method: (§1) Binding of the antibodies to human B7H3 and to human B7H2 and B7H4 was characterized using ELISAs. […] After washing once with PSB, 0.05% Tween, the plate was blocked with 100% Smart Block (Candor) for one hour at 37° C. The antibody to be tested was then attached to the plate (2 μg/ml IgG in PBS, 0.05% Tween, 10% Smart Block; 1 hour, room temperature). […] After washing three times, the plate was incubated with Amplex Red for 30 minutes and then read.

Molecule	Quotient signal (B7)/signal (buffer)
B9	< 1.5
B10	< 1.5
B11	< 1.5
B12	< 1.5

The molecules below were run against T3, TPP-3760, B7H3 long, human (R&D Systems 2318-B3/CF) (human, UniProt Q5ZPR3 27-461) in the same assay as above.
T3 construct: Bought protein; also called B7H3 (RnDSystems, 2318-B3-050/CF); human B7H3
T3 sequence: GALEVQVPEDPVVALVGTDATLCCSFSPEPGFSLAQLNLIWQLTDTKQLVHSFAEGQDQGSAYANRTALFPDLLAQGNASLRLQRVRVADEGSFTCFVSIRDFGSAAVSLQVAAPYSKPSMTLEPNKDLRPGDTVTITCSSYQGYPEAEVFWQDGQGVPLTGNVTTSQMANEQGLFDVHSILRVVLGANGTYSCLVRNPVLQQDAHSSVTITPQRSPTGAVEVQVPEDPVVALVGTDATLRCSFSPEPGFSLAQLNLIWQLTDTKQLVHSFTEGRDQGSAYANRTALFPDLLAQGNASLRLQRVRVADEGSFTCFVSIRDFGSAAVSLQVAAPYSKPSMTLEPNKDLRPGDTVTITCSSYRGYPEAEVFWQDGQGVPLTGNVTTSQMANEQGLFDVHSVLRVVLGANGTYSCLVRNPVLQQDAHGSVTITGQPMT
Method: as §1

Molecule	Quotient signal (B7)/signal (buffer)
B9	116
B10	118
B11	109
B12	126

The molecules below were run against T4, human B7H2 (RnDSystems, 8206-B7) (human, UniProt O75144 19-258, limits assumed) in the same assay as above.
T4 construct: Bought protein; His tag implied by anti-His detection
T4 sequence (looked up): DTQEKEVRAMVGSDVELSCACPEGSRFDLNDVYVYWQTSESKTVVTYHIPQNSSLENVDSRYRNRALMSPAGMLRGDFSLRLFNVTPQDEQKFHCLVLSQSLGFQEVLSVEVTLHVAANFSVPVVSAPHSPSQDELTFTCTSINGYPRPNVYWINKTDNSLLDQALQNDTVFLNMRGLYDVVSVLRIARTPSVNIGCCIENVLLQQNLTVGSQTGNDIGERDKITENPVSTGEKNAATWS
Method: as §1

Molecule	Quotient signal (B7)/signal (buffer)
B9	< 1.5
B10	< 1.5
B11	< 1.5
B12	< 1.5

Target: T1, human B7H3 on cancer cell lines
Experiment: cell-based or functional assay
Remark: another data set of the same source

Molecule	A498 CTG (IC 50 M) [nM]	MCF-7 CTG (IC50 M) [nM]	Caki-2 CTG (IC50 M) [nM]
B1	< 0.03	0.161	–
B4	0.688	0.338	–
B13	> 307	–	2.57
B14	–	0.135	–
B6	0.0667	–	–
B15	2.93	1	–
B8	0.247	–	< 0.03

Each molecule was assayed against T1, human B7H3 on cancer cell lines (assay: flow cytometry on A498 cells, dose response from 10 ug/mL (1:5 dilution), FITC secondary antibody).
Method: A dose response curve (1:5 dilution) was generated. Following incubation, 200 μL of ice-cold FACS buffer were pipetted in and the cell suspension was centrifuged at 4° C., 400 g for 4 min. The cell pellet was washed with 300 μL of ice-cold FACS buffer prior to resuspending the pellet obtained in 100 μL of FACS buffer and again incubating for 30 min on ice with secondary antibody (monoclonal anti-kappa light chains FITC antibody, Sigma, No. SAB4700605) in a 1:10 dilution. Subsequently, the cells were washed with ice-cold FACS buffer and adjusted to a cell concentration of 0.5×10⁶ cells/mL before carrying out the flow cytometry using a Guava flow cytometer (Millipore). Propidium iodide (final concentration 1 μg/mL) was used for the live staining. With the aid of the background-corrected geometric mean fluorescence values, the IC50 value of the antibody to be investigated was determined.

Molecule	EC50 [nM]
B9	0.661
B10	1.23
B11	0.847
B12	0.143
